Measurements: patent publication US12042530B2, “Target peptides for immunotherapy and diagnostics” (University of Virginia Patent Foundation, priority 2012, dated 2024)
Non-standard residues stand in square brackets, D forms with d. No end group written: not given here. pT = C[C@@H](OP(=O)(O)O)[C@H](N)C(=O)O; pS = N[C@@H](COP(=O)(O)O)C(=O)O

Legend:
[1] = target: T1, HLA-A*0201 (HLA-A2) peptide complexes (Homo sapiens, UniProt P04439, D140Y/D185E/D98H/E176V/E277Q/G131W/G231S/I119V/I121R/I166T/I218V/L300P/L318F/N151K/N90K/P208A/P217A/Q86G/Q94H/R138H/R169H/T345S); test: HLA-A*0201 phosphopeptides associated with leukemia samples (isolation of HLA-associated peptides); conditions: for Copies/cell class, JY: EBV transformed B lymphoblastoid cell line JY; for Copies/cell class, AML1: acute myeloid leukemia sample AML1; for Copies/cell class, CLL1: chronic lymphocytic leukemia sample CLL1; for Copies/cell class, B Cell: healthy B cells; for Copies/cell class, T Cell: healthy T cells; for Copies/cell class, MCL: mantle cell lymphoma sample
T1 construct: endogenous in cells; host or cells: JY B-lymphoblastoid line; primary CLL, MCL, AML, ALL samples; healthy splenic T and B cells
Source text: To identify naturally processed tumor-associated phosphopeptides, HLA-A*0201 (HLA-A2) and HLA-B*0702 (HLA-B7) peptide complexes from four (4) chronic lymphocytic leukemia (CLL) tumor samples, a mantle cell lymphoma sample (MCL), one acute lymphoblastic leukemia (ALL), and an acute myeloid leukemia (AML) sample, in addition to healthy splenic T and B-cells and the cultured lymphoblastoid cell line JY were isolated. These efforts yielded 10 HLA-A2-restricted and 86 HLA-B7-restricted phosphopeptide antigens (see Tables 6 and 7).
All cell lines were grown at 37° C. with 5% CO2 in growth medium consisting of RPMI 1640 supplemented with 10% FCS and two mM L-glutamine. Blood or leukapheresis samples were taken from patients with high-burden leukemia in heparin. Tumor cells were recovered by layering the blood over density gradient (Ficoll) and collecting the tumor layer following centrifugation. The tumor was washed in tris-buffered saline (TBS). The purity of the tumor was assessed using flow cytometry and was >98% pure in all cases. For healthy T and B-cell populations, a normal spleen sample processed and tonsil sample was collected and lymphocytes released through mechanical disruption. Mononuclear cells were isolated using a density gradient and 10^9 T cells isolated using anti-CD19 or anti-CD3 microbeads (Miltenyi Biotec Inc., Auburn, California, United States of America) with purity >98% were obtained. Bone marrow sample was obtained from an elective orthopedic procedure and red cell-depleted using hypotonic lysis. This sample was not processed further.
Class I MHC molecules were immunoaffinity purified from the JY cell line or from primary tumor samples, and their associated peptides were extracted as previously described in Zarling et al., 2006. Approximately 1.2-14×10^9 cells were lysed in a solution containing 20 mM Tris-HCl (pH 8.0), 150 mM NaCl, 1% CHAPS, one mM PMSF, five μg/mL aprotinin, 10 μg/mL leupeptin, 10 μg/mL pepstatin A, 1 μg/ml calyculin A, and phosphatase inhibitor (cocktails I and II; Sigma-Aldrich). The mixture was subjected to centrifugation and the resulting supernatant was passed over protein A sepharose pre-loaded with the HLA-A2-specific antibody BB7.2 or HLA-B7-specific antibody MEL Peptides were eluted from the purified class I MHC molecules with 10% acetic acid.

HLA-B*0702 = target: T2, HLA-B*0702 (Homo sapiens, UniProt P01889); test: Phosphopeptides presented in association with class I molecules (HLA-B*0702) on cancer cells: melanoma and/or leukemia; parameters: key: Melanoma (M); Leukemia (L); L/M: Melanoma (M) and/or Leukemia (L); conditions: cancer type on which the HLA-B*0702 phosphopeptide is presented
T2 construct: endogenous in cells; host or cells: melanoma and/or leukemia cells

[2] = target: T3, HLA-B*0702 (HLA-B7) peptide complexes (Homo sapiens, UniProt P01889); test: HLA-B*0702 phosphopeptides associated with leukemia samples (isolation of HLA-associated peptides); conditions: for Copies/cell class, ALL1: acute lymphoblastic leukemia sample ALL1; for Copies/cell class, HCL1: hairy cell leukemia sample HCL1; for Copies/cell class, B Cell: healthy B cells; for Copies/cell class, T Cell: healthy T cells
T3 construct: endogenous in cells; host or cells: JY B-lymphoblastoid line; primary ALL, CLL, HCL, AML samples; bone marrow; healthy B and T cells
In short: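 Class I HLA-A2 and HLA-B7 complexes were immunoaffinity-purified (BB7.2 or MEL antibodies on protein A) from CHAPS lysates of ~1.2-14×10^9 cells, using phosphatase and protease inhibitors. Sources were Ficoll-purified (>98%) CLL, MCL, ALL and AML cells, healthy splenic T/B cells and JY cells. Peptides were eluted with 10% acetic acid.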

Substance | Copies/cell class, CLL2 [1] | Copies/cell class, CLL3 [1] | Copies/cell class, CLL4 [1] | Copies/cell class, JY [1] | Copies/cell class, AML1 [1] | Copies/cell class, CLL1 [1] | Copies/cell class, B Cell [1] | Copies/cell class, T Cell [1] | Copies/cell class, MCL [1] | L/M (HLA-B*0702) | Copies/cell class, AML1 [2] | Copies/cell class, CLL2 [2] | Copies/cell class, CLL4 [2] | Copies/cell class, JY [2] | Copies/cell class, ALL1 [2] | Copies/cell class, HCL1 [2] | Copies/cell class, B Cell [2] | Copies/cell class, T Cell [2]
464 (VMIGSPKKV; SITE (1)..(9): One or more of the listed amino acids can be phosphorylated as set forth in the Tables; listed as Homo sapiens) [compound 464] | 0 | 0 | 0 | 0 | 0 | 0 | 0 | 0 | 1 (1 indicates <1 copy/cell) | – | – | – | – | – | – | – | – | –
459 (RVASPTSGV; SITE (1)..(109: One or more of the listed amino acids can be phosphorylated as set forth in the Tables; listed as Homo sapiens) [compound 459] | 1 (1 indicates <1 copy/cell) | 0 | 0 | 0 | 0 | 1 (1 indicates <1 copy/cell) | 0 | 0 | 1 (1 indicates <1 copy/cell) | – | – | – | – | – | – | – | – | –
436 (KAKSPAPGL; SITE (1)..(9): One or more of the listed amino acids can be phosphorylated as set forth in the Tables; listed as Homo sapiens) [compound 436] | 1 (1 indicates <1 copy/cell) | 0 | 0 | 0 | 0 | 0 | 0 | 0 | 0 | – | – | – | – | – | – | – | – | –
444 (KMDSFLDMQL; SITE (1)..(10): One or more of the listed amino acids can be phosphorylated as set forth in the Tables; listed as Homo sapiens) [compound 444] | 0 | 0 | 1 (1 indicates <1 copy/cell) | 2 (2 indicates 1-5 copies/cell) | 0 | 0 | 0 | 0 | 0 | – | – | – | – | – | – | – | – | –
440 (KLIDRTESL; SITE (1)..(9): One or more of the listed amino acids can be phosphorylated as set forth in the Tables; listed as Homo sapiens) [compound 440] | 2 (2 indicates 1-5 copies/cell) | 1 (1 indicates <1 copy/cell) | 1 (1 indicates <1 copy/cell) | 2 (2 indicates 1-5 copies/cell) | 0 | 2 (2 indicates 1-5 copies/cell) | 0 | 0 | 0 | – | – | – | – | – | – | – | – | –
456 (RQLSSGVSEI; SITE (1)..(10): One or more of the listed amino acids can be phosphorylated as set forth in the Tables; listed as Homo sapiens) [compound 456] | 0 | 1 (1 indicates <1 copy/cell) | 0 | 0 | 0 | 0 | 0 | 0 | 0 | – | – | – | – | – | – | – | – | –
451 (RQASIELPSM; SITE (1)..(10): One or more of the listed amino acids can be phosphorylated as set forth in the Tables; listed as Homo sapiens) [compound 451] | 2 (2 indicates 1-5 copies/cell) | 1 (1 indicates <1 copy/cell) | 1 (1 indicates <1 copy/cell) | 4 (4 indicates >25 copies per cell) | 1 (1 indicates <1 copy/cell) | 2 (2 indicates 1-5 copies/cell) | 2 (2 indicates 1-5 copies/cell) | 2 (2 indicates 1-5 copies/cell) | 1 (1 indicates <1 copy/cell) | – | – | – | – | – | – | – | – | –
309 (RPA[pS]PAAKL; listed as Homo sapiens) [compound 309] | – | – | – | – | – | – | – | – | – | M | 1 (1 indicates <1 copy/cell) | 2 (2 indicates 1-5 copies/cell) | 1 (1 indicates <1 copy/cell) | 4 (4 indicates >25 copies per cell) | 2 (2 indicates 1-5 copies/cell) | 1 (1 indicates <1 copy/cell) | 1 (1 indicates <1 copy/cell) | 1 (1 indicates <1 copy/cell)
322 (RPP[pS]SEFLDL; listed as Homo sapiens) [compound 322] | – | – | – | – | – | – | – | – | – | L | – | 1 (1 indicates <1 copy/cell) | – | – | 3 (3 indicates 6-25 copies per cell) | 1 (1 indicates <1 copy/cell) | 2 (2 indicates 1-5 copies/cell) | 2 (2 indicates 1-5 copies/cell)
367 (SPA[pS]PKISL; listed as Homo sapiens) [compound 367] | – | – | – | – | – | – | – | – | – | L | – | 1 (1 indicates <1 copy/cell) | 1 (1 indicates <1 copy/cell) | 4 (4 indicates >25 copies per cell) | 1 (1 indicates <1 copy/cell) | 1 (1 indicates <1 copy/cell) | – | –
277 (GPRSASLL[pS]L; listed as Homo sapiens) [compound 277] | – | – | – | – | – | – | – | – | – | M | 4 (4 indicates >25 copies per cell) | – | – | – | – | – | – | –
310 (RPA[pT]GGPGVA; listed as Homo sapiens) [compound 310] | – | – | – | – | – | – | – | – | – | L | – | – | – | – | 1 (1 indicates <1 copy/cell) | – | – | –
392 (YQR[pS]FDEVEGVF; listed as Homo sapiens) [compound 392] | – | – | – | – | – | – | – | – | – | L | 2 (2 indicates 1-5 copies/cell) | – | – | – | – | – | – | –
